{
  "source": "patent US20200354406A1",
  "about": "(Bicycle, published 2020)",
  "binders": {"B1": {"name": "BCY12019, synthetic tetramer of four BCY11607 [A-(SEQ ID NO: 6)-A-K(Pya)] linked via C-terminal Lys(PYA) to spacer S1A (n = 23) and central hinge moiety A (TET) (peptide)", "peptide": "ACLYSPCWHPLNDCAK", "modifications": "linker 2-7-14 via TATA; not fully specified (residue 16); also: tetramer: four BCY11607 monomers clicked via S1A to central hinge A (TET)"}, "B2": {"name": "BCY12141, Nectin-4:OX40 heterotandem of BCY11607 [A-(SEQ ID NO: 6)-A-K(Pya)] and BCY8116-PEG12-N3 (peptide)", "peptide 1": "ACLYSPCWHPLNDCAK(Pent4ynoyl)", "peptide 2": "CP[1Nal][dD]CM[hArg]DWSTP[Hyp]WC", "modifications": "linker I:2-I:7-I:14, II:1-II:5-II:15 via TATA; not fully specified (bridges); also: PEG12 linker attached to chain 2, place not given here"}, "B3": {"name": "BCY12967, Nectin-4:OX40 heterotandem of a trifunctional PEG3 derivative of BCY8116 and BCY11607 (peptide)", "peptide 1": "ACLYSPCWHPLNDCAK(Pent4ynoyl)", "peptide 2": "CP[1Nal][dD]CM[hArg]DWSTP[Hyp]WC", "modifications": "linker I:2-I:7-I:14, II:1-II:5-II:15 via TATA; not fully specified (bridges); also: two copies of chain 1 (BCY11607) clicked via Lys(Pya) to the trifunctional PEG3 linker"}, "B4": {"name": "BCY12721, Nectin-4:OX40 heterotandem (taken as BCY12708 [Ac-A-(SEQ ID NO: 6)-A-K(Pya)] with a PEG5 derivative of BCY8116) (peptide)", "peptide 1": "Ac-ACLYSPCWHPLNDCAK(Pent4ynoyl)", "peptide 2": "CP[1Nal][dD]CM[hArg]DWSTP[Hyp]WC", "modifications": "linker I:2-I:7-I:14, II:1-II:5-II:15 via TATA; not fully specified; also: heterotandem: chain 1 Lys(Pya) linked to PEG5 derivative of chain 2"}},
  "assay_in_all_cases": "cell-based or functional assay",
  "key": {"[1]": {"molecular_target": "T1, OX40 on OX40 Jurkat reporter cells (Promega CS197704) (UniProt P43489 29-277, limits assumed)", "T1 sequence (looked up)": "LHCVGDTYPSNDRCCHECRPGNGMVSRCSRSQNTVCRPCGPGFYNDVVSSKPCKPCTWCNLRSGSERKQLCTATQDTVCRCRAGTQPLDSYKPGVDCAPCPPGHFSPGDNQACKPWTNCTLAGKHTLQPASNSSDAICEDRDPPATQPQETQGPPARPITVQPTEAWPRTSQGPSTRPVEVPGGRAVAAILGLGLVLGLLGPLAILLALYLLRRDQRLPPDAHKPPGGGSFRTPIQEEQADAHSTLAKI"}, "[2]": {"molecular_target": "T1, OX40 on OX40 Jurkat reporter cells …", "remark": "listed apart in the source"}, "[3]": {"molecular_target": "T1, OX40 on OX40 Jurkat reporter cells …", "remark": "listed apart in the source"}},
  "note": "Starred links: 1 amine or outer side, 2 acyl side, 3 side chain; linkers in the order of their positions; H or OH if unused. Positions of bridges follow the written chain, without caps; N, C: chain ends. Non-standard residues stand in square brackets, D forms with d. Chains are numbered I, II in the order given. No end group written: not given here. *: point of attachment. TATA = O=C(CC[*:1])N1CN(C(=O)CC[*:2])CN(C(=O)CC[*:3])C1; 1Nal = N[C@@H](Cc1cccc2ccccc12)C(=O)O; Hyp = O=C(O)[C@@H]1C[C@@H](O)CN1; hArg = N=C(N)NCCCC[C@H](N)C(=O)O; Pent4ynoyl = C#CCCC(=O)*",
  "data": [
    {"binder": "B1", "values": [
      {"measurement": "agonism in the Promega OX40 cell-activity assay relative to BCY10549 bound to streptavidin", "setting": "[1]", "result": "~10", "unit": "fold"},
      {"measurement": "EC50 (nM), Promega OX40 cell-activity assay (NF-κB luciferase in OX40 Jurkat cells)", "setting": "[2]", "result": 2.6, "unit": "nM"}
    ]},
    {"binder": "B2", "values": [
      {"measurement": "EC50 (nM), Promega OX40 cell-activity assay in co-culture with Nectin-4 positive 4T1-D02 tumor cells", "setting": "[3]", "result": 0.59, "unit": "nM"}
    ]},
    {"binder": "B3", "values": [
      {"measurement": "EC50 (nM), Promega OX40 cell-activity assay in co-culture with Nectin-4 positive 4T1-D02 tumor cells", "setting": "[3]", "result": 0.83, "unit": "nM"}
    ]},
    {"binder": "B4", "values": [
      {"measurement": "EC50 (nM), Promega OX40 cell-activity assay in co-culture with Nectin-4 positive 4T1-D02 tumor cells", "setting": "[3]", "result": 0.94, "unit": "nM"}
    ]}
  ]
}
